Target: IgE antibodies of four Pru p 7 reactive human sera
Test: ImmunoCAP IgE inhibition, inhibitor at 20 ug/mL in solution, rPru p 7 on solid phase, against dilution buffer control

B1: recombinant Cup s GRPb (protein)
chain: AQIDCDKECNRRCSKASLHDRCLKYCGICCEKCHCVPPGTAGNEDVCPCYAHLKNSKGGHKCP
percent inhibition of IgE binding to rPru p 7 (fourth serum): 80%

Source: US20220241406A1
